Assay results from patent publication US20150285818A1, “Switchable Reporter Enzymes for Homogenous Antibody Detection” (TECHNISCHE UNIVERSITEIT EINDHOVEN, priority 2012, published 2015).

What was measured:
…-GGG-C(fluorescein) [1] = assay: fluorescence polarization, 2 nM labelled peptide titrated with antibody
…-GGG-C(fluorescein) [2] = assay: fluorescence polarization, 2 nM fluorescein-labelled peptide titrated with antibody
[3] = target: WEKIRLR-GGG-C(fluorescein) (HIV1); assay: fluorescence polarization, 10 nM fluorescein-labelled peptide titrated with antibody
[4] = target: …-GGG-C(fluorescein) (HIV1); assay: as above
[5] = target: WEKIRLR-GGG-C(fluorescein) (HIV1); assay: fluorescence polarization, 10 nM labelled peptide titrated with antibody
[6] = target: …-GGG-C(fluorescein) (HIV1); assay: as above

Work on “HA monoclonal antibody (clone 2-2.2.14, Thermo Scientific)” yielded a Kd (…-GGG-C(fluorescein) [1]) of 0.58 nM and an EC50 (read off the curve) (…-GGG-C(fluorescein) [2]) of 1 to 2 nM.
“anti-HIV-1-p17 antibody (clone 32/1.24.89, Zeptometrix)” gave an EC50 (read off the curve) [3] of 3000 nM, an EC50 (read off the curve) [4] of 30 nM and a Kd [5] of 3300 nM. For the same substance, the Kd [6] was 24 nM.
